Reference: patent US6906176B2, “Enterokinase cleavage sequences” (Dyax Corp., priority 2000, dated 2005)
Marks after values point to notes of the source that are not given here.

Columns and labels:
Type in all cases: biochemical
[1] = biological target: T1, recombinant light chain enterokinase (Bos taurus, UniProt P98072); experiment: Cleavage site test: digestion of synthetic test peptides to completion, HPLC and mass spectroscopy; conditions: for extent of enterokinase digestion: 36-48 hrs with 20U enterokinase, HPLC; for recovered product, product peak 1 / recovered product, product peak 2: 60 to 100 μg peptide digested to completion (36-48 hrs) with 20U enterokinase, reverse phase HPLC, electrospray MS
T1 construct: enterokinase cleavage using 30 nM recombinant light chain enterokinase (Novagen); purchased Novagen, Madison, Wis
T1 sequence (P98072 801-1035 limits assumed): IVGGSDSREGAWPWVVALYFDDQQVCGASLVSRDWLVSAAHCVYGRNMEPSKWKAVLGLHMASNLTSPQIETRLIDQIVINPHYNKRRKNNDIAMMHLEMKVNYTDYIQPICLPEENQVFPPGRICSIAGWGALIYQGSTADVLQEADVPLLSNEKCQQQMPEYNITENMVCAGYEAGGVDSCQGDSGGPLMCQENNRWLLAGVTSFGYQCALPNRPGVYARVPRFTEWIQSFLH
Procedure: To further test the predicted cleavage site as well as the rates and extent of cleavage, seven test peptides shown in Table 6 were chemically synthesized, contacted with enterokinase, and analyzed by HPLC and mass spectrometric analysis.
To test the predicted cleavage site, i.e., following the acid-base dipeptide motif, 60 to 100 μg of each test peptide was digested to completion (36-48 hrs) with 20U of recombinant light chain enterokinase (Novagen) and analyzed by reverse phase HPLC. Product peaks were eluted with a water/acetonitrile (H2O/ACN) gradient and identified by electrospray mass spectroscopy.
“% ACN” estimates the position in the H2O/Acetonitrile gradient at which the indicated cleavage fragment eluted. The expected product peaks for GDDDDK (residue 1-6 SEQ ID NO:197) and NKAKDR (residues 1-6, SEQ ID NO:201) were not detected by HPLC, but the cleavage site could be determined from analyzing the alternate product peak, i.e., the peptide to the C-terminal side of the cleavage site.

enterokinase = biological target: T2, enterokinase (Bos taurus, UniProt P98072); experiment: Substrate competition with reference peptide GDDDDK-βNA; conditions: for reference peptide rate (Vb): rate of reference peptide GDDDDK-βNA 250 μM in competition with the test peptide 250 μM; for ratio (Va/Vb): test peptide cleavage rate to reference peptide cleavage rate, 250 μM each; for ratio kcat/Km, times greater than that of the reference peptide: tested in competition at 250 μM
T2 construct: provide a substrate specifically recognized and cleaved by recombinant light chain enterokinase
T2 sequence (P98072 801-1035 limits assumed): as above
Procedure: Rates of substrate hydrolysis depends on several factors, namely, concentration of enzyme and substrate, Km (Michaelis constant) values, and kcat (catalytic rate constant) values. One way to compare the relative efficiencies with which a protease hydrolyses two substrates (a and b) is to simultaneously incubate both substrates in a single reaction with the enzyme and measure the rates of product formation for each (Va and Vb). If the total product formation is low (<10%), the starting concentrations of the two competing substrates are the same, and the reaction is performed at steady-state: Va/Vb=(kcat/Km)a/(kcat/Km)b Relative ratios of kcat/Km can be determined from relative rates of substrate hydrolysis.
To compare the relative efficiency of hydrolysis by enterokinase, reference peptide (GDDDDK-βNA, 250 μM, SEQ ID NO:203) was incubated simultaneously with one of the test peptides (250 μM), treated with enterokinase, and the relative rate of product formation measured. The products were quantitated by HPLC and initial cleavage rates calculated.

[2] = biological target: T1, recombinant light chain enterokinase; experiment: Relative rate of cleavage of synthetic peptides by HPLC; conditions: relative to GDDDDK-βNA; peptides tested individually at 500 μM
[3] = biological target: T1, recombinant light chain enterokinase; experiment: as above; conditions: about 500 μM peptide; for cleavage rate compared with the other peptides (in words): 50 nM enterokinase; for Cleavage Rate: 50 nM recombinant light chain enterokinase
Procedure: Peptides were digested with enterokinase and aliquots tested at timed intervals by HPLC to quantitate the extent of cleavage. For each test peptide, about 500 μM of peptide were digested with 50 nM of recombinant light chain enterokinase. The seven synthetic peptides were compared with a commercially available standard EK cleavage substrate, GDDDDK-β-naphthylamine (GDDDDK-βNA, SEQ ID NO:203; from BACHEM, King of Prussia, Pa.), having a fluorescent leaving group that increases in fluorescence when it is cleaved.

[4] = biological target: T1, recombinant light chain enterokinase; experiment: Phage ELISA kinetics of enterokinase cleavage of phage isolates; conditions: streptavidin-bound phage, 30 nM or 130 nM enterokinase, 30 minutes
Procedure: FIG. 1 and FIG. 2 show the time course of enterokinase cleavage of phage isolates from five rounds of screening a substrate phage library. The tested isolates were those having recurring sequences among 90 sequenced isolates. The isolates are tested in comparison with an isolate (5-H11) containing the known enterokinase cleavage sequence DDDDK and an unselected phage displaying a polypeptide not recognized by enterokinase.
Phage displaying each of the sequences shown in Table 5 were tested individually for kinetics of enterokinase cleavage using a phage ELISA. Streptavidin-bound phage were treated with either 30 nM or 130 nM enterokinase for 30 minutes. The time courses of phage release are shown in FIG. 1 (release at 30 nM EK) and FIG. 2 (release at 130 nM EK). Phage from the unselected substrate library were used as a control, i.e., isolate 5-F08. (SEQ ID NO:196).

AVLSNVMFT (AVLSNVMFI; negative control in EK cleavage experiment) [AVLSNVMFII, negative control test peptide, reference compound]
extent of enterokinase digestion [1]: not cleaved at all | extent of enterokinase digestion ([1]; listed as negative control peptide): No cleavage

DINDDRSLF (synthetic enterokinase cleavage sequence)
recovered product, product peak 1 [1]: DINDDR | recovered product, product peak 2 [1]: SLF | reference peptide rate (Vb) (enterokinase): 0.006 | ratio (Va/Vb) (enterokinase): 30 | ratio kcat/Km, times greater than that of the reference peptide (enterokinase): 30 | rate relative to standard substrate [2]: 3.1 | cleavage rate compared with the other peptides (in words) [3]: cleaved significantly more rapidly than the two control peptides | Cleavage Rate [3]: 1/43

DINDDRSLFSESS (synthetic enterokinase cleavage sequence) [Isolate 5-H04, round 5 phage isolate]
enterokinase cleavage rate of phage isolate (phage release) [4]: most readily cut

GDDDDK-β-naphthylamine [GDDDDK-βNA, reference compound]
rate relative to standard substrate [2]: (1.0) | cleavage rate compared with the other peptides (in words) [3]: cleaved at nearly equal rates and more rapidly than the remaining three peptides tested | Cleavage Rate [3]: 0.46 nmol/min

GDDDDKIYV (natural enterokinase cleavage sequence) [reference compound]
recovered product, product peak 2 [1]: IYV | reference peptide rate (Vb) (enterokinase): 0.027 | ratio (Va/Vb) (enterokinase): 1.0 | rate relative to standard substrate [2]: 0.7 | cleavage rate compared with the other peptides (in words) [3]: cleaved at nearly equal rates and more rapidly than the remaining three peptides tested | Cleavage Rate [3]: 0.34 nmol/min

GNYTDRMFI (synthetic enterokinase cleavage sequence)
recovered product, product peak 1 [1]: GNYTDR | recovered product, product peak 2 [1]: MET | reference peptide rate (Vb) (enterokinase): 0.011 | ratio (Va/Vb) (enterokinase): 3.5 | ratio kcat/Km, times greater than that of the reference peptide (enterokinase): 3.5 | rate relative to standard substrate [2]: 1.8 | cleavage rate compared with the other peptides (in words) [3]: cleaved significantly more rapidly than the two control peptides | Cleavage Rate [3]: 0.81 nmol/min

GNYTDRRFI (synthetic enterokinase cleavage sequence)
recovered product, product peak 1 [1]: GNYTDR | recovered product, product peak 2 [1]: RFI | rate relative to standard substrate [2]: 0.4 | Cleavage Rate [3]: 0.18 nmol/min

GNYTDRYFI (commercial synthetic enterokinase cleavage substrate)
recovered product, product peak 1 [1]: GNYTDR | recovered product, product peak 2 [1]: YFI | rate relative to standard substrate [2]: 0.5 | Cleavage Rate [3]: 0.24 nmol/min

MGDDDDKIYVYKT (synthetic enterokinase cleavage sequence) [Isolate 5-H11, reference compound]
enterokinase cleavage rate of phage isolate (phage release) [4]: slower than for at least three of the other isolates

NKAKDRMFI (synthetic enterokinase cleavage sequence)
recovered product, product peak 2 [1]: MFI | rate relative to standard substrate [2]: 0.6 | Cleavage Rate [3]: ~0.26* nmole/min.
